Measured values as given in paper PMC3982999 (Molecular Biology of the Cell, 2014).

Biological target: ubiquitin agarose (UniProt P0CG48 1-76, linked to agarose beads)
Assay: pull-down

B1: GST-spartin 1-408 (domain or fragment)
chain: MEQEPQNGEPAEIKIIREAYKKAFLFVNKGLNTDELGQKEEAKNYYKQGIGHLLRGISISSKESEHTGPGWESARQMQQKMKETLQNVRTRLEILEKGLATSLQNDLQEVPKLYPEFPPKDMCEKLPEPQSFSSAPQHAEVNGNTSTPSAGAVAAPASLSLPSQSCPAEAPPAYTPQAAEGHYTVSYGTDSGEFSSVGEEFYRNHSQPPPLETLGLDADELILIPNGVQIFFVNPAGEVSAPSYPGYLRIVRFLDNSLDTVLNRPPGFLQVCDWLYPLVPDRSPVLKCTAGAYMFPDTMLQAAGCFVGVVLSSELPEDDRELFEDLLRQMSDLRLQANWNRAEEENEFQIPGRTRPSSDQLKEASGTDVKQLDQGNKDVRHKGKRGKRAKDTSSEEVNLSHIVPCEPV
- binding result: binds
